Data on 6 molecules can be found in patent US20210139548A1 (published 2021).

First the molecules themselves.
B1: Compound 177 (peptide)
peptide: Isovaleryl-APEK([AEEA-AEEA-γGlu-C18 diacid])PEEDSSPEELQRYYVELRHYYNWLTRQRY-NH2
SMILES: CC(C)CC(=O)N[C@@H](C)C(=O)N1CCC[C@H]1C(=O)N[C@@H](CCC(=O)O)C(=O)N[C@@H](CCCCNC(=O)COCCOCCNC(=O)COCCOCCNC(=O)CC[C@H](NC(=O)CCCCCCCCCCCCCCCCC(=O)O)C(=O)O)C(=O)N1CCC[C@H]1C(=O)N[C@@H](CCC(=O)O)C(=O)N[C@@H](CCC(=O)O)C(=O)N[C@@H](CC(=O)O)C(=O)N[C@@H](CO)C(=O)N[C@@H](CO)C(=O)N1CCC[C@H]1C(=O)N[C@@H](CCC(=O)O)C(=O)N[C@@H](CCC(=O)O)C(=O)N[C@@H](CC(C)C)C(=O)N[C@@H](CCC(N)=O)C(=O)N[C@@H](CCCNC(=N)N)C(=O)N[C@@H](Cc1ccc(O)cc1)C(=O)N[C@@H](Cc1ccc(O)cc1)C(=O)N[C@H](C(=O)N[C@@H](CCC(=O)O)C(=O)N[C@@H](CC(C)C)C(=O)N[C@@H](CCCNC(=N)N)C(=O)N[C@@H](Cc1c[nH]cn1)C(=O)N[C@@H](Cc1ccc(O)cc1)C(=O)N[C@@H](Cc1ccc(O)cc1)C(=O)N[C@@H](CC(N)=O)C(=O)N[C@@H](Cc1c[nH]c2ccccc12)C(=O)N[C@@H](CC(C)C)C(=O)N[C@H](C(=O)N[C@@H](CCCNC(=N)N)C(=O)N[C@@H](CCC(N)=O)C(=O)N[C@@H](CCCNC(=N)N)C(=O)N[C@@H](Cc1ccc(O)cc1)C(N)=O)[C@@H](C)O)C(C)C
B2: Compound 178 (peptide)
peptide: Isovaleryl-APEK([AEEA-AEEA-γGlu-C18 diacid])PEEDATPEETERYYVSLRHYYNWLTRQRY-NH2
SMILES: CC(C)CC(=O)N[C@@H](C)C(=O)N1CCC[C@H]1C(=O)N[C@@H](CCC(=O)O)C(=O)N[C@@H](CCCCNC(=O)COCCOCCNC(=O)COCCOCCNC(=O)CC[C@H](NC(=O)CCCCCCCCCCCCCCCCC(=O)O)C(=O)O)C(=O)N1CCC[C@H]1C(=O)N[C@@H](CCC(=O)O)C(=O)N[C@@H](CCC(=O)O)C(=O)N[C@@H](CC(=O)O)C(=O)N[C@@H](C)C(=O)N[C@H](C(=O)N1CCC[C@H]1C(=O)N[C@@H](CCC(=O)O)C(=O)N[C@@H](CCC(=O)O)C(=O)N[C@H](C(=O)N[C@@H](CCC(=O)O)C(=O)N[C@@H](CCCNC(=N)N)C(=O)N[C@@H](Cc1ccc(O)cc1)C(=O)N[C@@H](Cc1ccc(O)cc1)C(=O)N[C@H](C(=O)N[C@@H](CO)C(=O)N[C@@H](CC(C)C)C(=O)N[C@@H](CCCNC(=N)N)C(=O)N[C@@H](Cc1c[nH]cn1)C(=O)N[C@@H](Cc1ccc(O)cc1)C(=O)N[C@@H](Cc1ccc(O)cc1)C(=O)N[C@@H](CC(N)=O)C(=O)N[C@@H](Cc1c[nH]c2ccccc12)C(=O)N[C@@H](CC(C)C)C(=O)N[C@H](C(=O)N[C@@H](CCCNC(=N)N)C(=O)N[C@@H](CCC(N)=O)C(=O)N[C@@H](CCCNC(=N)N)C(=O)N[C@@H](Cc1ccc(O)cc1)C(N)=O)[C@@H](C)O)C(C)C)[C@@H](C)O)[C@@H](C)O
B3: Compound 182 (peptide)
peptide: Isovaleryl-APEK([AEEA-AEEA-γGlu-C18 diacid])PEEDGSPEELQRYYVELRHYYNWLTRQRY-NH2
SMILES: CC(C)CC(=O)N[C@@H](C)C(=O)N1CCC[C@H]1C(=O)N[C@@H](CCC(=O)O)C(=O)N[C@@H](CCCCNC(=O)COCCOCCNC(=O)COCCOCCNC(=O)CC[C@H](NC(=O)CCCCCCCCCCCCCCCCC(=O)O)C(=O)O)C(=O)N1CCC[C@H]1C(=O)N[C@@H](CCC(=O)O)C(=O)N[C@@H](CCC(=O)O)C(=O)N[C@@H](CC(=O)O)C(=O)NCC(=O)N[C@@H](CO)C(=O)N1CCC[C@H]1C(=O)N[C@@H](CCC(=O)O)C(=O)N[C@@H](CCC(=O)O)C(=O)N[C@@H](CC(C)C)C(=O)N[C@@H](CCC(N)=O)C(=O)N[C@@H](CCCNC(=N)N)C(=O)N[C@@H](Cc1ccc(O)cc1)C(=O)N[C@@H](Cc1ccc(O)cc1)C(=O)N[C@H](C(=O)N[C@@H](CCC(=O)O)C(=O)N[C@@H](CC(C)C)C(=O)N[C@@H](CCCNC(=N)N)C(=O)N[C@@H](Cc1c[nH]cn1)C(=O)N[C@@H](Cc1ccc(O)cc1)C(=O)N[C@@H](Cc1ccc(O)cc1)C(=O)N[C@@H](CC(N)=O)C(=O)N[C@@H](Cc1c[nH]c2ccccc12)C(=O)N[C@@H](CC(C)C)C(=O)N[C@H](C(=O)N[C@@H](CCCNC(=N)N)C(=O)N[C@@H](CCC(N)=O)C(=O)N[C@@H](CCCNC(=N)N)C(=O)N[C@@H](Cc1ccc(O)cc1)C(N)=O)[C@@H](C)O)C(C)C
B4: Compound 180 (peptide)
peptide: Isovaleryl-APEK([AEEA-AEEA-γGlu-C18 diacid])PEEDASPEETQQYYVSLRHYYNWLTRQRY-NH2
SMILES: CC(C)CC(=O)N[C@@H](C)C(=O)N1CCC[C@H]1C(=O)N[C@@H](CCC(=O)O)C(=O)N[C@@H](CCCCNC(=O)COCCOCCNC(=O)COCCOCCNC(=O)CC[C@H](NC(=O)CCCCCCCCCCCCCCCCC(=O)O)C(=O)O)C(=O)N1CCC[C@H]1C(=O)N[C@@H](CCC(=O)O)C(=O)N[C@@H](CCC(=O)O)C(=O)N[C@@H](CC(=O)O)C(=O)N[C@@H](C)C(=O)N[C@@H](CO)C(=O)N1CCC[C@H]1C(=O)N[C@@H](CCC(=O)O)C(=O)N[C@@H](CCC(=O)O)C(=O)N[C@H](C(=O)N[C@@H](CCC(N)=O)C(=O)N[C@@H](CCC(N)=O)C(=O)N[C@@H](Cc1ccc(O)cc1)C(=O)N[C@@H](Cc1ccc(O)cc1)C(=O)N[C@H](C(=O)N[C@@H](CO)C(=O)N[C@@H](CC(C)C)C(=O)N[C@@H](CCCNC(=N)N)C(=O)N[C@@H](Cc1c[nH]cn1)C(=O)N[C@@H](Cc1ccc(O)cc1)C(=O)N[C@@H](Cc1ccc(O)cc1)C(=O)N[C@@H](CC(N)=O)C(=O)N[C@@H](Cc1c[nH]c2ccccc12)C(=O)N[C@@H](CC(C)C)C(=O)N[C@H](C(=O)N[C@@H](CCCNC(=N)N)C(=O)N[C@@H](CCC(N)=O)C(=O)N[C@@H](CCCNC(=N)N)C(=O)N[C@@H](Cc1ccc(O)cc1)C(N)=O)[C@@H](C)O)C(C)C)[C@@H](C)O
B5: Compound 181 (peptide)
peptide: Isovaleryl-APEK([AEEA-AEEA-γGlu-C18 diacid])PEADASPEELQRYYVALRHYYNWLTRQRY-NH2
SMILES: CC(C)CC(=O)N[C@@H](C)C(=O)N1CCC[C@H]1C(=O)N[C@@H](CCC(=O)O)C(=O)N[C@@H](CCCCNC(=O)COCCOCCNC(=O)COCCOCCNC(=O)CC[C@H](NC(=O)CCCCCCCCCCCCCCCCC(=O)O)C(=O)O)C(=O)N1CCC[C@H]1C(=O)N[C@@H](CCC(=O)O)C(=O)N[C@@H](C)C(=O)N[C@@H](CC(=O)O)C(=O)N[C@@H](C)C(=O)N[C@@H](CO)C(=O)N1CCC[C@H]1C(=O)N[C@@H](CCC(=O)O)C(=O)N[C@@H](CCC(=O)O)C(=O)N[C@@H](CC(C)C)C(=O)N[C@@H](CCC(N)=O)C(=O)N[C@@H](CCCNC(=N)N)C(=O)N[C@@H](Cc1ccc(O)cc1)C(=O)N[C@@H](Cc1ccc(O)cc1)C(=O)N[C@H](C(=O)N[C@@H](C)C(=O)N[C@@H](CC(C)C)C(=O)N[C@@H](CCCNC(=N)N)C(=O)N[C@@H](Cc1c[nH]cn1)C(=O)N[C@@H](Cc1ccc(O)cc1)C(=O)N[C@@H](Cc1ccc(O)cc1)C(=O)N[C@@H](CC(N)=O)C(=O)N[C@@H](Cc1c[nH]c2ccccc12)C(=O)N[C@@H](CC(C)C)C(=O)N[C@H](C(=O)N[C@@H](CCCNC(=N)N)C(=O)N[C@@H](CCC(N)=O)C(=O)N[C@@H](CCCNC(=N)N)C(=O)N[C@@H](Cc1ccc(O)cc1)C(N)=O)[C@@H](C)O)C(C)C
B6: Compound 179 (peptide)
peptide: Isovaleryl-APAK([AEEA-AEEA-γGlu-C18 diacid])PEEDASPAELQRYYVSLRHYYNWLTRQRY-NH2
SMILES: CC(C)CC(=O)N[C@@H](C)C(=O)N1CCC[C@H]1C(=O)N[C@@H](C)C(=O)N[C@@H](CCCCNC(=O)COCCOCCNC(=O)COCCOCCNC(=O)CC[C@H](NC(=O)CCCCCCCCCCCCCCCCC(=O)O)C(=O)O)C(=O)N1CCC[C@H]1C(=O)N[C@@H](CCC(=O)O)C(=O)N[C@@H](CCC(=O)O)C(=O)N[C@@H](CC(=O)O)C(=O)N[C@@H](C)C(=O)N[C@@H](CO)C(=O)N1CCC[C@H]1C(=O)N[C@@H](C)C(=O)N[C@@H](CCC(=O)O)C(=O)N[C@@H](CC(C)C)C(=O)N[C@@H](CCC(N)=O)C(=O)N[C@@H](CCCNC(=N)N)C(=O)N[C@@H](Cc1ccc(O)cc1)C(=O)N[C@@H](Cc1ccc(O)cc1)C(=O)N[C@H](C(=O)N[C@@H](CO)C(=O)N[C@@H](CC(C)C)C(=O)N[C@@H](CCCNC(=N)N)C(=O)N[C@@H](Cc1c[nH]cn1)C(=O)N[C@@H](Cc1ccc(O)cc1)C(=O)N[C@@H](Cc1ccc(O)cc1)C(=O)N[C@@H](CC(N)=O)C(=O)N[C@@H](Cc1c[nH]c2ccccc12)C(=O)N[C@@H](CC(C)C)C(=O)N[C@H](C(=O)N[C@@H](CCCNC(=N)N)C(=O)N[C@@H](CCC(N)=O)C(=O)N[C@@H](CCCNC(=N)N)C(=O)N[C@@H](Cc1ccc(O)cc1)C(N)=O)[C@@H](C)O)C(C)C

*1 amine or outer side, *2 acyl side, *3 side chain or, on linkers, in order; H or OH if unused. Side-chain parts run from the residue outwards. The star is where a group is joined. C18 diacid = O=C(O)CCCCCCCCCCCCCCCCC(=O)*; γGlu = O=C(O)[C@H](CCC(=O)[*:2])N[*:1]; Isovaleryl = CC(C)CC(=O)*; AEEA = NCCOCCOCC(=O)O

Broadly, the Ki is a measure of affinity in units of concentration, obtained from inhibition or displacement. A lower Ki goes with higher affinity.

This experiment addresses T1, human neuropeptide Y2 receptor (human, UniProt P49146 1-381).
T1 construct: whole, on cells; also called hNPY2 receptor; hNPY2-R
T1 sequence (looked up): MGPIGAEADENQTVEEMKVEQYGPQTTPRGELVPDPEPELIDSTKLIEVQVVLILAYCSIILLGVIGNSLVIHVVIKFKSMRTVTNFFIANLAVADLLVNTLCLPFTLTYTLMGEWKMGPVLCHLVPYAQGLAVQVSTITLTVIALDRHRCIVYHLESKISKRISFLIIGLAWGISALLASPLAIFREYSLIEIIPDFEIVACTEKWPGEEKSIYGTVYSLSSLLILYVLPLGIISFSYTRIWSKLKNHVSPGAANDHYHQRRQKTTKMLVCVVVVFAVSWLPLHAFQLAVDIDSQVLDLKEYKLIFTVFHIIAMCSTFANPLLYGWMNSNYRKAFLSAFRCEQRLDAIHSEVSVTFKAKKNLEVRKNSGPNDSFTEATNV
Put plainly: radioligand competition (125I-PYY(1-36)), hNPY2R membranes. A digest of the protocol:
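Commercial human Y2 receptor membranes (0.5 μg protein/well) were incubated with peptide for 2 h at room temperature in 50 mM HEPES, 5 mM MgCl₂, 1 mM CaCl₂, pH 7.4, with 0.2% ovalbumin. Bound radioligand was separated on PEI-soaked GF/C filters and counted by scintillation, and IC₅₀ came from nonlinear sigmoidal regression.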
Molecule B1 gave a Ki of 2.55 nM.

As for B2, the affinity, expressed as Ki, was 2.05 nM.

In turn, B3 yielded a Ki of 3.45 nM.

Consider B4, for which the Ki came to 3.85 nM.

Molecule B5 gave a Ki of 0.67 nM.

B6 displayed a Ki of 1 nM.
